One assay deals with T1, PCSK9-WT protein (Homo sapiens, UniProt Q8NBP7).
T1 construct: V5
Kind of assay: FACS analysis of cell surface LDLR in HuH7 cells with PCSK9-WT. In kind it is cell-based. The method, then:
HuH7 cells were incubated for 18 h in the absence (Cnt) or presence of 0.75 μg/ml PCSK9-WT protein alone (WT) or mixed with 100 μM of various SRX peptides. The level of LDLR at the cell surface was measured by FACS using anti human LDLR Ab and a suitable secondary Ab labeled with Alexa 647. Cell surface LDLR is reported relative to Cnt. % inhibition of activity was calculated as [SRX−WT]/[Cnt−WT]×100%.
See, FIG. 1. In that experiment, the LDLR levels of a hepatocyte culture model (HuH7 cells) were measured by fluorescence activated cell sorting (FACS) in accordance with Example III. Cell surface LDLR is reported as a percentage of Basal levels of LDLR, indicated by the Cnt_Amm.Bic, Cnt_Ac.Acid, and Cnt bars in the top graph. See, FIG. 1 (top panel). LDLR levels in the presence of exogenous PCSK9 is indicated as WT_Amm.Bic, WT-Ac.Acid, and WT, and Exogenous PCSK9 in combination with a tested peptide is indicated as SRX##. The measured LDLR levels are reported as % versus basal controls (Cnt) of the respective group. […] This was further shown a percent inhibition (% inhibition was calculated as [SRX−WT]/[Cnt−WT]×100%) where positive modulation (increase) of LDLR level is reported as positive % inhibition, and negative modulation (decrease) of LDLR level is reported as negative % inhibition. See, FIG. 1 (bottom panel).
Benjannet et al., “Effects of the prosegment and pH on the activity of PCSK9: evidence for additional processing events” J Biol Chem. 285(52): 40965-40978 (2010). The cells were then washed 3× with solution A (calcium/magnesium-free Dulbecco's PBS (Invitrogen) containing 0.5% bovine serum albumin (Sigma) and 1 g/liter glucose)). The cells were then incubated for 10 min at room temperature with 1× Versene solution (Invitrogen) followed by the addition of 5 ml of solution A. The cells were then incubated for 40 min in solution A containing a human LDLR mAb-C7 (1:100; Santa Cruz Biotechnology). Following washes, the cells were then incubated for 20 min in solution A containing a secondary antibody (Alexa Fluor 647 donkey anti-mouse antibody; 1:250; Molecular Probes).
Following suspension in PBS containing 0.2% of propidium iodide, the cells were analyzed by FACS for both propidium iodide (dead cells) and LDLR in live cells with Alexa Fluor 647 using the FACS BD LSR (BD Biosciences).
Background: Flow cytometry measures light scatter and fluorescence of single cells or particles in a stream.

The next assay concerns the target D374Y PCSK9 (DY) (Homo sapiens, UniProt Q8NBP7, D374Y). Kind of assay: Cellular diI-LDL uptake in FL-83B cells with D374Y PCSK9. Type of assay: cell-based, mouse. To be noted: FL83B, D374Y 0.6 ug/ml, pre-incubated 3 hrs at 37 C, dose dependent manner (FIG. 7). The method, then:
After 16 h, dil-LDL (5 ug/ml) was added to the incubation mixtures. After 4 h, fluorescence was measured (Ex: 520 nm/Em: 575 nm; cutoff: 550 nm). Dil-LDL uptake is calculated as RFU corrected for the number of cells. The PCSK9 and −/+SRX55 [SEQ ID NO: 2] mixtures were pre-incubated for 3 hrs at 37 C prior to addition to the cells.
LDL internalization was measured by uptake of a fluorescently tagged LDL molecule (diI-LDL) in the absence of exogenous PCSK9 (Cnt), in the presence of exogenous PCSK9 (normal PCSK9=WT, D374Y mutant PCSK9=DY), or in the presence of PCSK9 and a tested peptide (indicated as SRX##, or SRX if a single peptide results is shown in a graph). […]
Peptide activity was assessed by culturing cells with: i) no SRX peptide/PCSK9 protein complex (control, Cnt); ii) PCSK9 protein; and iii) SRX peptide/PCSK9 complex. […]
Cells were cultured using one of the combinations of conditions described in the preceding paragraph for 16 hours. After 16 hours, a quantity of diI-LDL (Low density lipoprotein coupled with 1,1′-dioctadecyl-3,3,3′,3′-tetramethylindocarbocyanine perchlorate) needed to bring the media concentration to 5 ug/mL of diI-LDL was added to the culture well and cells continued to be cultured under these new conditions for 4 additional hours. […] Fluorescence of the diI-LDL in the specimens were quantified using excitation at 530 nm and resulting emission at 580 nm. […]

Where no end group is shown, it is not given here.

T1 sequence (Q8NBP7 153-692): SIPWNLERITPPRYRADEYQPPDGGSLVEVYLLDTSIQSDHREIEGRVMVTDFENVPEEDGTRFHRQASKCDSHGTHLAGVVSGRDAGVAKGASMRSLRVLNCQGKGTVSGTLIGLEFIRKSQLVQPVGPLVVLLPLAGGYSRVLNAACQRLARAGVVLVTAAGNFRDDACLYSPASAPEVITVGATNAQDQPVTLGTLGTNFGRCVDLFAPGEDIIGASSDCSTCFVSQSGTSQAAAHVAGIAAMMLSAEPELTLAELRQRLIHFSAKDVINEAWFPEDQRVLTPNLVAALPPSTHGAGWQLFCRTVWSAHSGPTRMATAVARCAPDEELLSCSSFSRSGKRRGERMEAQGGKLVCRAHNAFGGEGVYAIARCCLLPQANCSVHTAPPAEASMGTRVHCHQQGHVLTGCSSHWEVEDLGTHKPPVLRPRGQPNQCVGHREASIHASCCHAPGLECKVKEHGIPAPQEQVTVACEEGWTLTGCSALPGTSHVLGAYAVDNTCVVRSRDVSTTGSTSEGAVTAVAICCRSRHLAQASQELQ
Sequence of D374Y PCSK9 (DY) (Q8NBP7 153-692 D374Y): as the sequence (Q8NBP7 153-692) above, with D222Y counted along it

Turning to “Val-Tyr-Val-Arg-Phe-Trp (VYVRFW; not fully specified (C-terminus); printed as Val-Tyr-Val-Arg-Phe-Trp) [Compound 1]”, the “modulation of LDLR cell surface level” value with PCSK9-WT protein (HuH7 cells, FACS, exogenous WT PCSK9 plus peptide (FIG. 1, 100 μM)) is “positively modulate (increase)”. The “increase of cell surface expression of LDL-R” value with PCSK9-WT protein (WT PCSK9, FACS in HuH7 cells) is reported as 100%. The “LDL internalization (dil-LDL % uptake vs Cnt)” value in the assay with D374Y PCSK9 (DY) is on record as “positively modulated (increased)”.

The values are drawn from patent US10287317B2, “Proprotein convertase subtilisin kexin type 9 (PCSK9) allosteric binding ligands to modulate serum low density lipoprotein (LDL) levels” (SRX Cardio, LLC, priority 2013, dated 2019).
